Experimental data from paper PMC7470959, “Structures of mammalian GLD-2 proteins reveal molecular basis of their functional diversity in mRNA and microRNA processing”.
Positions count from the first letter of the chain named.

How the values were obtained:
Details in all cases: protein: recombinant; tags: N-terminal His6 removed by PreScission protease; label: 5' biotin; single strand
rnGLD-2 R236A = target: T1, rnGLD-2 R236A (Rattus norvegicus, UniProt Q5U315 131-484, R236A); experiment: EMSA; 4 uM protein, 50 nM RNA; efficient/tight binding stated; EMSA: 20 mM Tris-HCl pH 8.0, 100 mM NaCl, 37 C 20 min; 4 uM protein, 50 nM 5' biotinylated RNA; 6% native gel, TAE pH 7.2, 4 C
T1 sequence: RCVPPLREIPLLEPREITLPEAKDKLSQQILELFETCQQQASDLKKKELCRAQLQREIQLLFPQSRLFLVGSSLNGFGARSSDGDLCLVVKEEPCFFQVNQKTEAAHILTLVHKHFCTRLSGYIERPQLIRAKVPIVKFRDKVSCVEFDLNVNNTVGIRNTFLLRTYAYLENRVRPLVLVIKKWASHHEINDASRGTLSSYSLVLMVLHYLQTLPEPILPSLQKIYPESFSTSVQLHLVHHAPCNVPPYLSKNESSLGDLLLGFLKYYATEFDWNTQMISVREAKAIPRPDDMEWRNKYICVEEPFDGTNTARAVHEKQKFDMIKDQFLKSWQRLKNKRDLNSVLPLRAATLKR

rnGLD-2 R443A = target: T2, rnGLD-2 R443A (Rattus norvegicus, UniProt Q5U315 131-484, R443A); experiment: EMSA; 4 uM protein, 50 nM RNA; EMSA: 20 mM Tris-HCl pH 8.0, 100 mM NaCl, 37 C 20 min; 4 uM protein, 50 nM 5' biotinylated RNA; 6% native gel, TAE pH 7.2, 4 C
T2 sequence: T1 sequence with A106R, R313A

rnGLD-2 R325A = target: T3, rnGLD-2 R325A (Rattus norvegicus, UniProt Q5U315 131-484, R325A); experiment: as above
T3 sequence: T1 sequence with A106R, R195A

rnGLD-2 NTase region WT = target: T4, rnGLD-2 NTase region WT (Rattus norvegicus, UniProt Q5U315 131-484); experiment: EMSA; 4 uM protein, 50 nM RNA; described as weak interaction; no Mg2+ listed in binding buffer; EMSA: 20 mM Tris-HCl pH 8.0, 100 mM NaCl, 37 C 20 min; 4 uM protein, 50 nM 5' biotinylated RNA; 6% native gel, TAE pH 7.2, 4 C
T4 sequence: T1 sequence with A106R

B1: A15 (ssRNA)
RNA: AAAAAAAAAAAAAAA
binding result (rnGLD-2 R236A): binds | binding result (rnGLD-2 R443A): no binding | binding result (rnGLD-2 R325A): no binding | binding result (rnGLD-2 NTase region WT): binds
